# From US12338268B2, “Compositions and methods for treating protein aggregation-associated diseases” (The Board of Trustees of the Leland Stanford Junior …, priority 2019, dated 2025)
# Key:
# [1] = molecular target: T1, mutant Huntingtin exon 1 (mHttQ51) (Homo sapiens, UniProt P42858, INS38QQQQQQQQQQQQQQQQQQQQQQQQQQQQQQQ); test: In vitro filter trap aggregation assay of mutant Huntingtin exon 1; assay type: biochemical; conditions: for mHttQ51 aggregation: 5× molar excess, 3 μM mHttQ51, filter trap, SDS-insoluble aggregates
# T1 construct: mutant Huntingtin exon 1 containing a pathogenic stretch of 51 glutamines (mHttQ51); GST (N, cleaved yes); made in house; host or cells: E. coli Rosetta 2(DE3) pLysS
# Procedure: (§1) Mutant Huntingtin and PolyQ51 aggregation reactions were performed at concentration 3 μM of mHttQ51, 0.044 Units/μl acTEV protease (Invitrogen, Carlsbad, CA, USA), and respective concentrations of Ovalbumin (Sigma) or purified NAC chaperone variants. Aggregation was conducted in TEV reaction buffer (Invitrogen) and incubated at 30° C. AtxQ78 was buffer exchanged into TEV reaction buffer using 7K MWCO Zeba Spin Desalting Columns (Thermo Fisher) to initiate aggregation. AtxQ78 aggregation reactions were performed at 30 μM of Ataxin-3 in reaction buffer (20 mM sodium phosphate pH 7.5, 25 mM NaCl, 6 mM MgCl2, 2 mM DTT, 5% (v/v) glycerol) and incubated at 37° C. Samples at varied time-points were then taken and combined in a 1:1 ratio with a 4% (w/v) SDS, 100 mM DTT solution, boiled for 5 min at 95° C., and stored at −20° C. Samples were then filtered through a 0.22 μm cellulose acetate membrane (Whatman) and washed with 0.1% (w/v) SDS. Membrane was probed using an S-tag antibody (Abcam) for mHttQ51 and PolyQ51, and with a His-tag antibody (Abcam) for AtxQ78.
# [2] = molecular target: T2, full-length Ataxin-3 (AtxQ78) (Homo sapiens, UniProt P54252, INS305QQQQQQQQQQQQQQQQQQQQQQQQQQQQQQQQQQQQQQQQQQQQQQQQQQQQQQQQQQQQQQQQ); test: Filter trap aggregation assay of AtxQ78; assay type: biochemical; conditions: equimolar (1×) NAC, 37° C.
# T2 construct: full-length Ataxin-3 harboring a stretch of 78 glutamines (AtxQ78); made in house
# Procedure: as §1
# Aβ40 = molecular target: T3, Aβ40 (Homo sapiens, UniProt P05067); test: Thioflavin T fluorescence assay of Aβ40 aggregation; assay type: biochemical; conditions: equimolar NAC variant and Aβ40 (32 μM FIG. 4C; 18 μM FIG. 12C), 37° C., 20 h
# T3 construct: Aβ40 peptide was expressed and purified as described previously; made in house; host or cells: E. coli BL21 (DE3)
# Procedure: Lyophilized Aβ40 was resuspended at 320 μM in 20 mM sodium phosphate pH 7.4, 0.2 mM EDTA, 0.01% (w/v) sodium azide and stored on ice. The NAC proteins were diluted to 100 μM in storage buffer (20 mM sodium phosphate pH 7.5, 25 mM NaCl, 6 mM MgCl2, 2 mM β-mercaptoethanol, 5% (v/v) glycerol) and buffer exchanged into 20 mM sodium phosphate pH 7.4, 0.2 mM EDTA, 0.01% (w/v) sodium azide, 1× complete mini protease inhibitor, EDTA free (Roche) by means of ZebaSpin 7 kDa MWCO spin columns (Thermo Scientific). Samples were prepared that contained equimolar concentrations of Aβ40 and NAC variants. Thioflavin T was added to a final concentration of 10 μM. The samples were transferred to a 96 well half-area clear bottom microplate (Corning GmbH, Wiesbaden, Germany), with 95 μL of sample in each well. The fluorescence (excitation: 440 nm, emission: 480 nm) was measured using a BMG Omega plate reader (BMG Labtech) incubating samples at 37° C., quiescently.
# PolyQ35::YFP = PolyQ35::YFP aggregation in C. elegans overexpressing NAC (fluorescence microscopy, SDD-AGE); assay type: in vivo; conditions: overexpressed in body wall muscle cells (myo-3 promoter), day 3 of adulthood, fluorescence microscopy
# Description: NAC is a major ribosome-binding factor interacting broadly with nascent chains (del Alamo et al., 2011). However, its assumed chaperone function is poorly investigated. […] Although loss of NAC causes pleiotropic defects in C. elegans (Gamerdinger et al., 2015), this finding raises the possibility that NAC directly exerts a chaperone function on aggregation-prone proteins. In this case, overexpression of NAC should prevent aggregation of PolyQ proteins in vivo. Therefore, we used a C. elegans strain expressing 35 consecutive glutamine residues fused to YFP (PolyQ35::YFP) in body wall muscle cells. This PolyQ length is close to the aggregation threshold in C. elegans muscle cells, leading to progressive, age-dependent aggregation starting at day 2 of adulthood (Morley et al., 2002). We generated transgenic animals that overexpress FLAG-tagged α- and βNAC under the control of the muscle-specific myo-3 promoter. PolyQ aggregation was assessed at day 3 of adulthood by fluorescence microscopy as well as semi-denaturing detergent agarose gel electrophoresis (SDD-AGE), which detects high molecular weight oligomeric PolyQ species (Halfmann and Lindquist, 2008). […] This is evident by magnification of the head regions showing diffuse PolyQ35::YFP and less punctate PolyQ35::YFP structures when NAC was overexpressed (FIG. 1A, head region images). […] To directly test the potential chaperone function of NAC, we employed a peptide composed of 51 consecutive glutamines (PolyQ51) as a model substrate in a well-established in vitro aggregation assay. We initiated aggregation of PolyQ51 by cleaving a solubilizing GST tag with TEV protease and detected aggregates over time using a filter trap assay.
# Worms were cultured according to standard techniques with E. coli OP50 as food source (Brenner, 1974). Transgenic strains were generated using standard microinjection protocols (Mello and Fire, 1995). […]
# [3] = tested on: PolyQ35::YFP C. elegans worms; test: Paralysis assay; assay type: in vivo; conditions: overexpression; day 6 to 10 of adulthood
# Procedure: To analyze the percentage of paralyzed worms, 100 semi-synchronized (timed egg lay for 5 h) young adult worms of each strain were placed on a plate containing 150 μM 5-fluorodeoxyuridine. Screening of paralyzed worms was started at day 6 of adulthood.
# T1 sequence (P42858 with tags, fused parts or gaps with the stated changes limits assumed): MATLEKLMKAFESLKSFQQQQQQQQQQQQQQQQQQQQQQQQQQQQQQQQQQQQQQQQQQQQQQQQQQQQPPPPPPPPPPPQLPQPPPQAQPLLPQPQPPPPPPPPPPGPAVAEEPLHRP
# T2 sequence (P54252 with tags, fused parts or gaps with the stated changes): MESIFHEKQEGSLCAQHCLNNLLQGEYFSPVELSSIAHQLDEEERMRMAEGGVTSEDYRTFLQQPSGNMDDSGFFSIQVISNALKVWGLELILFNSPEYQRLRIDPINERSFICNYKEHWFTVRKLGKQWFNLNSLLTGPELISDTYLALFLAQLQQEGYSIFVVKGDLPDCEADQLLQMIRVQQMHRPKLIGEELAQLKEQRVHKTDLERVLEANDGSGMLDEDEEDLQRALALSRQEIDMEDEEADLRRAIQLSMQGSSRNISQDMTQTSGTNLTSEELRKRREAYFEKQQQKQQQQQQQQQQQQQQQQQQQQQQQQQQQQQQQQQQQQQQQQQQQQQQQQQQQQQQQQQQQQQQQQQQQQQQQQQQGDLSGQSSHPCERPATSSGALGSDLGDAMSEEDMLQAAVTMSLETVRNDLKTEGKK
molecule,measurement,setting,value
ApiCCT1: the 140 amino acid apical domain of CCT1 (protein) MVPGYALNCTVASQAMPKRIAGGNVKIACLDLNLQKARMAMGVQINIDDPEQLEQIRKREAGIVLERVKKIIDAGAQVVLTTKGIDDLCLKEFVEAKIMGVRRCKKEDLRRIARATGATLVSSMSNLEGEETFESSYLGLCDEVVQAKFSDDECILIKGTSKAAAAALEHHHHHH,polyQ aggregation of huntingtin exon1,[1]; system with purified components,specifically and efficiently inhibits polyQ aggregation of huntingtin exon1
C. elegans NAC: purified recombinant C. elegans nascent polypeptide-associated complex (protein) chain 1: MTGSTETRQKEVKEPQVDVSDDSDNEAVEQELTEEQRRVAEAAGLGDHIDKQAKQSRSEKKARKLFSKLGLKQVTGVSRVCIRKSKNILFVINKPDVFKSPGSDTYIIFGEAKIEDLTQHAQMSAIENLKPTREAPQLKTVEEDENEDVEEDSTGIEEKDIELVISQANTTRNKAIRALKEADNDIVNAIMSLTM chain 2: MDSKAIAERIKKLQAQQEHVRIGGKGTPRRKKKVIHKTAAADDKKLQSNLKKLSVTNIPGIEEVNMIKDDGTVIHFNNPKVQTSVPANTFSVTGSADNKQITEMLPGILNQLGPESLTHLKKLANNVTKLGPDGKGEDEDVPELVGDFDAASKNETKADEQ,mHttQ51 aggregation,[1],to a lesser extent
same,AtxQ78 aggregation,[2],prevented AtxQ78 aggregation but was slightly less effective than the human isoform
RRK/AAA-NAC: NAC with mutation in the conserved ribosome-binding motif in the N-terminus of βNAC; ribosome-binding deficient (protein) chain 1: MTGSTETRQKEVKEPQVDVSDDSDNEAVEQELTEEQRRVAEAAGLGDHIDKQAKQSRSEKKARKLFSKLGLKQVTGVSRVCIRKSKNILFVINKPDVFKSPGSDTYIIFGEAKIEDLTQHAQMSAIENLKPTREAPQLKTVEEDENEDVEEDSTGIEEKDIELVISQANTTRNKAIRALKEADNDIVNAIMSLTM chain 2: MDSKAIAERIKKLQAQQEHVRIGGKGTPAAAKKVIHKTAAADDKKLQSNLKKLSVTNIPGIEEVNMIKDDGTVIHFNNPKVQTSVPANTFSVTGSADNKQITEMLPGILNQLGPESLTHLKKLANNVTKLGPDGKGEDEDVPELVGDFDAASKNETKADEQ,mHttQ51 aggregation,[1],delayed mHttQ51 aggregation similar to wild-type NAC
same,Aβ40 aggregation (ThT fluorescence),Aβ40,fully suppressed Aβ40 aggregation
same,PolyQ35::YFP aggregation,PolyQ35::YFP,suppressed PolyQ35::YFP aggregation similarly to WT-NAC
same,motility / age-associated paralysis of PolyQ35::YFP-expressing worms,[3],still improved motility during aging albeit less effective than WT-NAC
"ovalbumin: molar equivalent ovalbumin control protein (Sigma) (protein, UniProt P01012 2-386, looked up) Ovalbumin: GSIGAASMEFCFDVFKELKVHHANENIFYCPIAIMSALAMVYLGAKDSTRTQINKVVRFDKLPGFGDSIEAQCGTSVNVHSSLRDILNQITKPNDVYSFSLASRLYAEERYPILPEYLQCVKELYRGGLEPINFQTAADQARELINSWVESQTNGIIRNVLQPSSVDSQTAMVLVNAIVFKGLWEKAFKDEDTQAMPFRVTEQESKPVQMMYQIGLFRVASMASEKMKILELPFASGTMSMLVLLPDEVSGLEQLESIINFEKLTEWTSSNVMEERKIKVYLPRMKMEEKYNLTSVLMAMGITDVFSSSANLSGISSAESLKISQAVHAAHAEINEAGREVVGSAEAGVDAASVSEEFRADHPFLFCIKHIATNAVLFFGRCVSP",mHttQ51 aggregation,[1],little effect
